Data from the Human Domainome abundance scans (Beltran et al. 2025).
± gives the uncertainty stated by the source.

Assay: abundance fitness (aPCA) (normalised: wild type 0, dead -1); higher = more abundant; growth selection in yeast, the domain comes from the species named
Conditions: Homo sapiens

Scaffold attachment factor B1 D73C, Q15424
abundance fitness: -0.206 ± 0.059

Scaffold attachment factor B1 D73E, Q15424
abundance fitness: -0.072 ± 0.067

Scaffold attachment factor B1 D73F, Q15424
abundance fitness: -0.494 ± 0.085

Scaffold attachment factor B1 D73G, Q15424
abundance fitness: -0.124 ± 0.049

Scaffold attachment factor B1 D73H, Q15424
abundance fitness: -0.443 ± 0.098

Scaffold attachment factor B1 D73K, Q15424
abundance fitness: -0.652 ± 0.12

Scaffold attachment factor B1 D73L, Q15424
abundance fitness: -0.245 ± 0.059

Scaffold attachment factor B1 D73M, Q15424
abundance fitness: -0.468 ± 0.1

Scaffold attachment factor B1 D73N, Q15424
abundance fitness: -0.091 ± 0.097

Scaffold attachment factor B1 D73P, Q15424
abundance fitness: -0.278 ± 0.068

Scaffold attachment factor B1 D73Q, Q15424
abundance fitness: -0.362 ± 0.11

Scaffold attachment factor B1 D73R, Q15424
abundance fitness: -0.288 ± 0.056

Scaffold attachment factor B1 D73S, Q15424
abundance fitness: -0.243 ± 0.061

Scaffold attachment factor B1 D73T, Q15424
abundance fitness: -0.231 ± 0.056

Scaffold attachment factor B1 D73V, Q15424
abundance fitness: -0.23 ± 0.053

Scaffold attachment factor B1 D73W, Q15424
abundance fitness: -0.513 ± 0.056

Scaffold attachment factor B1 D73Y, Q15424
abundance fitness: -0.375 ± 0.073

Scaffold attachment factor B1 E42C, Q15424
abundance fitness: -0.346 ± 0.063

Scaffold attachment factor B1 E42D, Q15424
abundance fitness: -0.881 ± 0.099

Scaffold attachment factor B1 E42F, Q15424
abundance fitness: -0.587 ± 0.076

Scaffold attachment factor B1 E42H, Q15424
abundance fitness: -0.686 ± 0.12

Scaffold attachment factor B1 E42I, Q15424
abundance fitness: -0.422 ± 0.057

Scaffold attachment factor B1 E42K, Q15424
abundance fitness: -0.852 ± 0.1

Scaffold attachment factor B1 E42L, Q15424
abundance fitness: -0.188 ± 0.061

Scaffold attachment factor B1 E42M, Q15424
abundance fitness: -0.15 ± 0.074

Scaffold attachment factor B1 E42N, Q15424
abundance fitness: -0.736 ± 0.11

Scaffold attachment factor B1 E42P, Q15424
abundance fitness: -0.976 ± 0.18

Scaffold attachment factor B1 E42Q, Q15424
abundance fitness: -0.26 ± 0.083

Scaffold attachment factor B1 E42R, Q15424
abundance fitness: -0.903 ± 0.053

Scaffold attachment factor B1 E42S, Q15424
abundance fitness: -0.605 ± 0.056

Scaffold attachment factor B1 E42T, Q15424
abundance fitness: -0.776 ± 0.076

Scaffold attachment factor B1 E42V, Q15424
abundance fitness: -0.53 ± 0.053

Scaffold attachment factor B1 E42Y, Q15424
abundance fitness: -0.619 ± 0.1

Scaffold attachment factor B1 E59D, Q15424
abundance fitness: -0.15 ± 0.074

Scaffold attachment factor B1 E59F, Q15424
abundance fitness: -0.637 ± 0.071

Scaffold attachment factor B1 E59G, Q15424
abundance fitness: -0.153 ± 0.076

Scaffold attachment factor B1 E59H, Q15424
abundance fitness: -0.087 ± 0.063

Scaffold attachment factor B1 E59I, Q15424
abundance fitness: -0.071 ± 0.067

Scaffold attachment factor B1 E59K, Q15424
abundance fitness: -0.152 ± 0.084

Scaffold attachment factor B1 E59L, Q15424
abundance fitness: -0.15 ± 0.052

Scaffold attachment factor B1 E59M, Q15424
abundance fitness: -0.131 ± 0.064

Scaffold attachment factor B1 E59N, Q15424
abundance fitness: -0.131 ± 0.065

Scaffold attachment factor B1 E59Q, Q15424
abundance fitness: -0.19 ± 0.096

Scaffold attachment factor B1 E59R, Q15424
abundance fitness: -0.078 ± 0.074

Scaffold attachment factor B1 E59S, Q15424
abundance fitness: -0.111 ± 0.051

Scaffold attachment factor B1 E59T, Q15424
abundance fitness: -0.082 ± 0.053

Scaffold attachment factor B1 E59V, Q15424
abundance fitness: -0.125 ± 0.046

Scaffold attachment factor B1 E59W, Q15424
abundance fitness: -0.408 ± 0.11

Scaffold attachment factor B1 E59Y, Q15424
abundance fitness: -0.343 ± 0.095

Scaffold attachment factor B1 E66C, Q15424
abundance fitness: -0.284 ± 0.069

Scaffold attachment factor B1 E66F, Q15424
abundance fitness: -0.256 ± 0.061

Scaffold attachment factor B1 E66G, Q15424
abundance fitness: -0.218 ± 0.052

Scaffold attachment factor B1 E66H, Q15424
abundance fitness: -0.49 ± 0.075

Scaffold attachment factor B1 E66I, Q15424
abundance fitness: -0.261 ± 0.058

Scaffold attachment factor B1 E66K, Q15424
abundance fitness: -0.169 ± 0.082

Scaffold attachment factor B1 E66L, Q15424
abundance fitness: -0.133 ± 0.051

Scaffold attachment factor B1 E66M, Q15424
abundance fitness: -0.137 ± 0.046

Scaffold attachment factor B1 E66N, Q15424
abundance fitness: -0.202 ± 0.075

Scaffold attachment factor B1 E66P, Q15424
abundance fitness: -0.909 ± 0.097

Scaffold attachment factor B1 E66Q, Q15424
abundance fitness: -0.014 ± 0.078

Scaffold attachment factor B1 E66R, Q15424
abundance fitness: -0.202 ± 0.047

Scaffold attachment factor B1 E66S, Q15424
abundance fitness: -0.164 ± 0.056

Scaffold attachment factor B1 E66T, Q15424
abundance fitness: -0.11 ± 0.076

Scaffold attachment factor B1 E66V, Q15424
abundance fitness: -0.244 ± 0.05

Scaffold attachment factor B1 E66W, Q15424
abundance fitness: -0.43 ± 0.059

Scaffold attachment factor B1 E66Y, Q15424
abundance fitness: -0.288 ± 0.075

Scaffold attachment factor B1 E68A, Q15424
abundance fitness: -0.233 ± 0.05

Scaffold attachment factor B1 E68C, Q15424
abundance fitness: -0.586 ± 0.056

Scaffold attachment factor B1 E68D, Q15424
abundance fitness: -0.224 ± 0.073

Scaffold attachment factor B1 E68G, Q15424
abundance fitness: -0.289 ± 0.045

Scaffold attachment factor B1 E68H, Q15424
abundance fitness: -0.359 ± 0.057

Scaffold attachment factor B1 E68I, Q15424
abundance fitness: -0.469 ± 0.05

Scaffold attachment factor B1 E68K, Q15424
abundance fitness: -0.352 ± 0.07

Scaffold attachment factor B1 E68M, Q15424
abundance fitness: -0.461 ± 0.054

Scaffold attachment factor B1 E68N, Q15424
abundance fitness: -0.346 ± 0.056

Scaffold attachment factor B1 E68P, Q15424
abundance fitness: -0.802 ± 0.051

Scaffold attachment factor B1 E68Q, Q15424
abundance fitness: -0.279 ± 0.049

Scaffold attachment factor B1 E68R, Q15424
abundance fitness: -0.341 ± 0.051

Scaffold attachment factor B1 E68S, Q15424
abundance fitness: -0.236 ± 0.052

Scaffold attachment factor B1 E68T, Q15424
abundance fitness: -0.314 ± 0.054

Scaffold attachment factor B1 E68V, Q15424
abundance fitness: -0.265 ± 0.053

Scaffold attachment factor B1 E68W, Q15424
abundance fitness: -0.836 ± 0.07

Scaffold attachment factor B1 E74A, Q15424
abundance fitness: -0.071 ± 0.067

Scaffold attachment factor B1 E74C, Q15424
abundance fitness: -0.18 ± 0.073

Scaffold attachment factor B1 E74D, Q15424
abundance fitness: -0.312 ± 0.074

Scaffold attachment factor B1 E74F, Q15424
abundance fitness: -0.175 ± 0.069

Scaffold attachment factor B1 E74G, Q15424
abundance fitness: -0.202 ± 0.063

Scaffold attachment factor B1 E74H, Q15424
abundance fitness: -0.608 ± 0.12

Scaffold attachment factor B1 E74I, Q15424
abundance fitness: -0.215 ± 0.086

Scaffold attachment factor B1 E74K, Q15424
abundance fitness: -0.213 ± 0.089

Scaffold attachment factor B1 E74L, Q15424
abundance fitness: -0.125 ± 0.053

Scaffold attachment factor B1 E74M, Q15424
abundance fitness: -0.119 ± 0.068

Scaffold attachment factor B1 E74N, Q15424
abundance fitness: -0.366 ± 0.09

Scaffold attachment factor B1 E74P, Q15424
abundance fitness: -0.309 ± 0.063

Scaffold attachment factor B1 E74Q, Q15424
abundance fitness: -0.32 ± 0.088

Scaffold attachment factor B1 E74R, Q15424
abundance fitness: -0.074 ± 0.051

Scaffold attachment factor B1 E74S, Q15424
abundance fitness: -0.053 ± 0.053

Scaffold attachment factor B1 E74T, Q15424
abundance fitness: -0.183 ± 0.083

Scaffold attachment factor B1 E74V, Q15424
abundance fitness: -0.157 ± 0.055

Scaffold attachment factor B1 E74W, Q15424
abundance fitness: -0.135 ± 0.055

Scaffold attachment factor B1 E74Y, Q15424
abundance fitness: -0.226 ± 0.09

Scaffold attachment factor B1 E76A, Q15424
abundance fitness: -0.161 ± 0.064

Scaffold attachment factor B1 E76C, Q15424
abundance fitness: -0.113 ± 0.054

Scaffold attachment factor B1 E76G, Q15424
abundance fitness: -0.096 ± 0.053

Scaffold attachment factor B1 E76I, Q15424
abundance fitness: -0.291 ± 0.093

Scaffold attachment factor B1 E76K, Q15424
abundance fitness: -0.294 ± 0.096

Scaffold attachment factor B1 E76L, Q15424
abundance fitness: -0.199 ± 0.062

Scaffold attachment factor B1 E76M, Q15424
abundance fitness: -0.2 ± 0.086

Scaffold attachment factor B1 E76N, Q15424
abundance fitness: -0.169 ± 0.067

Scaffold attachment factor B1 E76P, Q15424
abundance fitness: -0.069 ± 0.083
